# Experimental data reported in paper PMC11922769.
# T1: His-MBP-SPO11;TOP6BL-Flag (Mus musculus;Mus musculus, UniProt Q9WTK8;J3QMY9 1-396;1-579, |)
# T1 sequence 1: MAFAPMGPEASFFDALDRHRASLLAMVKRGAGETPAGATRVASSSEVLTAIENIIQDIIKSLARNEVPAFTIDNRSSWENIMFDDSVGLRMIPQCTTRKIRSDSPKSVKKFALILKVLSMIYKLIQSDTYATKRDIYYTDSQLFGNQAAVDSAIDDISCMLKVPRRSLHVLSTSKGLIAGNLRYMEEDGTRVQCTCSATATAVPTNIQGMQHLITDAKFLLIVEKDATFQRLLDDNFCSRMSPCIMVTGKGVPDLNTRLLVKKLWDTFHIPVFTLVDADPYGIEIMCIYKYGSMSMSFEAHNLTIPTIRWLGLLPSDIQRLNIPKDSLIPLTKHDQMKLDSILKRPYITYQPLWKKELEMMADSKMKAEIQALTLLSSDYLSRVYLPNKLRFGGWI
# T1 sequence 2: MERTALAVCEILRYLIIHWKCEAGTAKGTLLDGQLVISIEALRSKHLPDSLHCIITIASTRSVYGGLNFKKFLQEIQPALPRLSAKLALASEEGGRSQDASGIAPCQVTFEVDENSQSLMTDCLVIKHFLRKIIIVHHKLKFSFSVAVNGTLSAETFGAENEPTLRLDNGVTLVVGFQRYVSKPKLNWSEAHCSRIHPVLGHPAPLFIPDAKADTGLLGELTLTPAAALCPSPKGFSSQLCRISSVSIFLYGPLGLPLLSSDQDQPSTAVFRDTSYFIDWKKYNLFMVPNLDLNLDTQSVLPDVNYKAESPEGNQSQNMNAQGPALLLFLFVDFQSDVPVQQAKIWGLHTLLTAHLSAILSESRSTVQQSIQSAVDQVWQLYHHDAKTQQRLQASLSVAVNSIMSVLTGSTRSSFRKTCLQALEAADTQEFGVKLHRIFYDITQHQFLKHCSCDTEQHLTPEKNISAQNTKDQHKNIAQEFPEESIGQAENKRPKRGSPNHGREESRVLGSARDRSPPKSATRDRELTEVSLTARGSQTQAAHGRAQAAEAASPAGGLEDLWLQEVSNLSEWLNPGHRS
# B1: 46bp dsDNA, double 5' overhang (dsDNA)
# DNA 1: TAGACGTCCTCGCATCAAGATGCTGCTGCCATCTTATATTTTCTATAC
# DNA 2: TAGTATAGAAAATATAAGATGGCAGCAGCATCTTGATGCGAGGACGTC
# Molecular target: T1, His-MBP-SPO11;TOP6BL-Flag
# Experiment: EMSA
binder,measurement,value
B1,Kd,20.8 ± 0.39 nM
